Source: paper PMC6366944 (Cell, 2018)

T1: EBOV VP30 residues 89-288 (in vitro pull-down) (Zaire ebolavirus, UniProt Q05323 89-288)
T1 sequence: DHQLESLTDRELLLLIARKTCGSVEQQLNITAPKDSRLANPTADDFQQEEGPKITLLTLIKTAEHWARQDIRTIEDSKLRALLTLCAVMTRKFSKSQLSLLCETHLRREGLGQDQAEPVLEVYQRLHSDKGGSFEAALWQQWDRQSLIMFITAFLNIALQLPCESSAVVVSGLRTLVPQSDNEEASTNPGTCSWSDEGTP

T2: EBOV VP30 C-terminal domain, residues 130-272 (Zaire ebolavirus, UniProt Q05323 130-272)
T2 sequence: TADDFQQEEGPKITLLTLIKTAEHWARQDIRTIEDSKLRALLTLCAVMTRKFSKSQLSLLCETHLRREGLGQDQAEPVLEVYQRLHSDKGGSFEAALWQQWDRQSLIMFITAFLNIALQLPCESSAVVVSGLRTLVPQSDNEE


Legend:
[1] = molecular target: T1, EBOV VP30 residues 89-288 (in vitro …); assay: pull-down
[2] = molecular target: T2, EBOV VP30 C-terminal domain, residues …; assay: ITC
[3] = molecular target: T2, EBOV VP30 C-terminal domain, residues …; assay: fluorescence polarisation

| Binder | binding result [1] | Kd [2] | stoichiometry N [2] | Kd [3] |
| --- | --- | --- | --- | --- |
| SLPATPVFVPVPPPPLYPPPPHTLP [MBP fusion of RBBP6 residues 549-573] | binds |  |  |  |
| SLPATPVFVPVPPPPLYPPPPHT [RBBP6 peptide, residues 549-571] |  | 0.75 ± 0.095 µM | 1 | 18.1 ± 0.41 µM |
| RTPTVAPPAPVYRDHS [unlabeled NP peptide] |  |  |  | 89.2 ± 2.26 µM |
